Numbered stars: 1 amine (or outer) side, 2 acyl side, 3 side chain; on linkers, the order of the positions; unused ones are H or OH. Bridge positions count the residues as written; N and C are the ends. Side chains are listed from the residue outwards. Ends that are not written are not given here. * marks the point of attachment. C20 diacid = O=C(O)CCCCCCCCCCCCCCCCCCC(=O)*; γGlu = O=C(O)[C@H](CCC(=O)[*:2])N[*:1]; AEEA = NCCOCCOCC(=O)O
T1: human calcitonin receptor (human, UniProt P30988 25-474)
T1 construct: whole, on cells; also called hCTR; hCT
T1 sequence (looked up): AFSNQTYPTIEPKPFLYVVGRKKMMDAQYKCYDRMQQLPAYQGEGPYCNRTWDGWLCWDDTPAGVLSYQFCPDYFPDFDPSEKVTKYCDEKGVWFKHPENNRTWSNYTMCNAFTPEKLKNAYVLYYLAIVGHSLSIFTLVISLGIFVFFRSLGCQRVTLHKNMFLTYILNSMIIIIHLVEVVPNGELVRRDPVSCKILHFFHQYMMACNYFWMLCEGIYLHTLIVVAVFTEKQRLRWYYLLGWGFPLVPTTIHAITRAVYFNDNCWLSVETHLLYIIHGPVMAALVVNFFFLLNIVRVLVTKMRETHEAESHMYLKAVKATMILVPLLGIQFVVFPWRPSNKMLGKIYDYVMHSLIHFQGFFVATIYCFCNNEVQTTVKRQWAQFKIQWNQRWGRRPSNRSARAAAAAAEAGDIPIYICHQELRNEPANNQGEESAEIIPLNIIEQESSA


How the values were obtained:
[1] = target: T1, human calcitonin receptor; assay: SPA radioligand competition (125I-calcitonin), membranes of BHK cells with human calcitonin receptor
Procedure: Membranes were prepared in the following way; the cells were rinsed with PBS and incubated with Versene for approximately 5 min before harvesting. The cells were flushed with PBS and the cell-suspension was centrifuged for 5 min at 1000 rpm. Cells were homogenized (Ultrathurrax) in a buffer containing 20 mM Na-HEPES and 10 mM EDTA (pH 7.4) and centrifuged at 20.000 rpm for 15 min. The resulting pellet was resuspended, homogenized and centrifuged (20.000 rpm, 15 min) in a buffer containing 20 mM Na-HEPES and 0.1 mM EDTA (pH 7.4, buffer 2). The resulting pellet was resuspended in buffer 2 and protein concentration was measured (BCA protein Assay, Pierce). The homogenate was kept cold during the whole procedure. The membranes were kept at −80° C. until use. Assay was performed in a 384 well Optiplate (PerkinElmer) in a total volume of 40 ul. Membranes were mixed with SPA beads. Final concentration of membranes 35 ng/μL final and Final concentration of SPA beads was 0.05 mg/well. Test-compounds were dissolved in DMSO and further diluted in assay buffer (50 mM Hepes, pH 7.4, 1 mM CaCl2, 5 mM MgCl₂, 0.1% OA and 0.02% Tween20). […] The final mixture was incubated for 120 min with shaking at 400 rpm at 25° C. prior to centrifugation (1500 rpm, 10 min). Samples were analyzed on TopCounter™ (Packard). The […] was calculated using (one site binding competition analysis) GraphPad Prism5 as a measure of receptor affinity.

[2] = target: T1, human calcitonin receptor; assay: ratio of IC50 at human calcitonin receptor to IC50 at human amylin receptor (SPA competition assays)
Procedure: The resulting pellet was resuspended, homogenized and centrifuged (20.000 rpm, 15 min) in a buffer containing 20 mM Na-HEPES and 0.1 mM EDTA (pH 7.4, buffer 2). The resulting pellet was resuspended in buffer 2 and protein concentration was measured (BCA protein Assay, Pierce). The homogenate was kept cold during the whole procedure. The membranes were kept at −80° C. until use. The assay was performed in a 384 well Optiplate (PerkinElmer) in a total volume of 40 ul. Membranes were mixed with SPA beads. Final concentration of membranes 35 ng/μL final and SPA beads was 0.05 mg/well. Test-compounds were dissolved in DMSO and further diluted in assay buffer (50 mM Hepes, pH 7.4, 1 mM CaCl2, 5 mM MgCl₂, 0.1% OA and 0.02% Tween20). […] The final mixture was incubated with shaking at 400 rpm for 120 min at 25° C. prior to centrifugation (1500 rpm, 10 min). Samples were analyzed on TopCounter™ (Packard). The IC₅₀ was calculated using (one site binding competition analysis) GraphPad Prism5 as a measure of receptor affinity.
Membranes were prepared in the following way; the cells were rinsed with PBS and incubated with Versene for approximately 5 min before harvesting. The cells were flushed with PBS and the cell-suspension was centrifuged for 5 min at 1000 rpm. Cells were homogenized (Ultrathurrax) in a buffer containing 20 mM Na-HEPES and 10 mM EDTA (pH 7.4) and centrifuged at 20.000 rpm for 15 min. The resulting pellet was resuspended, homogenized and centrifuged (20.000 rpm, 15 min) in a buffer containing 20 mM Na-HEPES and 0.1 mM EDTA (pH 7.4, buffer 2). The resulting pellet was resuspended in buffer 2 and protein concentration was measured (BCA protein Assay, Pierce). The homogenate was kept cold during the whole procedure. The membranes were kept at −80° C. until use. Assay was performed in a 384 well Optiplate (PerkinElmer) in a total volume of 40 ul. Membranes were mixed with SPA beads.

Binder	IC50 [1]	Ratio hCT/hAmylin binding [2]
K([AEEA-AEEA-γGlu-C20 diacid])CNTATCATQRLANFLRHSSPNFGAIPSSTNVGRNTY-NH2 (disulfide 2-7; N-terminus assumed; SMILES CC[C@H](C)[C@H](NC(=O)[C@H](C)NC(=O)CNC(=O)[C@H](Cc1ccccc1)NC(=O)[C@H](CC(N)=O)NC(=O)[C@@H]1CCCN1C(=O)[C@H](CO)NC(=O)[C@H](CO)NC(=O)[C@H](Cc1c[nH]cn1)NC(=O)[C@H](CCCNC(=N)N)NC(=O)[C@H](CC(C)C)NC(=O)[C@H](Cc1ccccc1)NC(=O)[C@H](CC(N)=O)NC(=O)[C@H](C)NC(=O)[C@H](CC(C)C)NC(=O)[C@H](CCCNC(=N)N)NC(=O)[C@H](CCC(N)=O)NC(=O)[C@@H](NC(=O)[C@H](C)NC(=O)[C@@H]1CSSC[C@H](NC(=O)[C@@H](N)CCCCNC(=O)COCCOCCNC(=O)COCCOCCNC(=O)CC[C@H](NC(=O)CCCCCCCCCCCCCCCCCCC(=O)O)C(=O)O)C(=O)N[C@@H](CC(N)=O)C(=O)N[C@@H]([C@@H](C)O)C(=O)N[C@@H](C)C(=O)N[C@@H]([C@@H](C)O)C(=O)N1)[C@@H](C)O)C(=O)N1CCC[C@H]1C(=O)N[C@@H](CO)C(=O)N[C@@H](CO)C(=O)N[C@H](C(=O)N[C@@H](CC(N)=O)C(=O)N[C@H](C(=O)NCC(=O)N[C@@H](CCCNC(=N)N)C(=O)N[C@@H](CC(N)=O)C(=O)N[C@H](C(=O)N[C@@H](Cc1ccc(O)cc1)C(N)=O)[C@@H](C)O)C(C)C)[C@@H](C)O, also called compound 95)	61.3 nM	63.4
K([AEEA-γGlu-C20 diacid])CNTATCATQRLAAFLRHSSPNFGAIPSSTPVGSNTY-NH2 (disulfide 2-7; N-terminus assumed; SMILES CC[C@H](C)[C@H](NC(=O)[C@H](C)NC(=O)CNC(=O)[C@H](Cc1ccccc1)NC(=O)[C@H](CC(N)=O)NC(=O)[C@@H]1CCCN1C(=O)[C@H](CO)NC(=O)[C@H](CO)NC(=O)[C@H](Cc1c[nH]cn1)NC(=O)[C@H](CCCNC(=N)N)NC(=O)[C@H](CC(C)C)NC(=O)[C@H](Cc1ccccc1)NC(=O)[C@H](C)NC(=O)[C@H](C)NC(=O)[C@H](CC(C)C)NC(=O)[C@H](CCCNC(=N)N)NC(=O)[C@H](CCC(N)=O)NC(=O)[C@@H](NC(=O)[C@H](C)NC(=O)[C@@H]1CSSC[C@H](NC(=O)[C@@H](N)CCCCNC(=O)COCCOCCNC(=O)CC[C@H](NC(=O)CCCCCCCCCCCCCCCCCCC(=O)O)C(=O)O)C(=O)N[C@@H](CC(N)=O)C(=O)N[C@@H]([C@@H](C)O)C(=O)N[C@@H](C)C(=O)N[C@@H]([C@@H](C)O)C(=O)N1)[C@@H](C)O)C(=O)N1CCC[C@H]1C(=O)N[C@@H](CO)C(=O)N[C@@H](CO)C(=O)N[C@H](C(=O)N1CCC[C@H]1C(=O)N[C@H](C(=O)NCC(=O)N[C@@H](CO)C(=O)N[C@@H](CC(N)=O)C(=O)N[C@H](C(=O)N[C@@H](Cc1ccc(O)cc1)C(N)=O)[C@@H](C)O)C(C)C)[C@@H](C)O, also called compound 72)	42.4 nM	247

Binders with a lower IC50 [1], results first:

IC50 [1]	Ratio hCT/hAmylin binding [2]	Binder
6.74 nM	74.1	K([AEEA-AEEA-γGlu-C20 diacid])CNTATCATQRLANFLRHSSPNFGAIPSSTNVGPNTY-NH2 (disulfide 2-7; N-terminus assumed; SMILES CC[C@H](C)[C@H](NC(=O)[C@H](C)NC(=O)CNC(=O)[C@H](Cc1ccccc1)NC(=O)[C@H](CC(N)=O)NC(=O)[C@@H]1CCCN1C(=O)[C@H](CO)NC(=O)[C@H](CO)NC(=O)[C@H](Cc1c[nH]cn1)NC(=O)[C@H](CCCNC(=N)N)NC(=O)[C@H](CC(C)C)NC(=O)[C@H](Cc1ccccc1)NC(=O)[C@H](CC(N)=O)NC(=O)[C@H](C)NC(=O)[C@H](CC(C)C)NC(=O)[C@H](CCCNC(=N)N)NC(=O)[C@H](CCC(N)=O)NC(=O)[C@@H](NC(=O)[C@H](C)NC(=O)[C@@H]1CSSC[C@H](NC(=O)[C@@H](N)CCCCNC(=O)COCCOCCNC(=O)COCCOCCNC(=O)CC[C@H](NC(=O)CCCCCCCCCCCCCCCCCCC(=O)O)C(=O)O)C(=O)N[C@@H](CC(N)=O)C(=O)N[C@@H]([C@@H](C)O)C(=O)N[C@@H](C)C(=O)N[C@@H]([C@@H](C)O)C(=O)N1)[C@@H](C)O)C(=O)N1CCC[C@H]1C(=O)N[C@@H](CO)C(=O)N[C@@H](CO)C(=O)N[C@H](C(=O)N[C@@H](CC(N)=O)C(=O)N[C@H](C(=O)NCC(=O)N1CCC[C@H]1C(=O)N[C@@H](CC(N)=O)C(=O)N[C@H](C(=O)N[C@@H](Cc1ccc(O)cc1)C(N)=O)[C@@H](C)O)C(C)C)[C@@H](C)O, also called compound 98)
13.2 nM	79.6	K([AEEA-AEEA-γGlu-C20 diacid])CNTATCATQRLANFLRHSSPNFGAIPSSTPVGSNTY-NH2 (disulfide 2-7; N-terminus assumed; SMILES CC[C@H](C)[C@H](NC(=O)[C@H](C)NC(=O)CNC(=O)[C@H](Cc1ccccc1)NC(=O)[C@H](CC(N)=O)NC(=O)[C@@H]1CCCN1C(=O)[C@H](CO)NC(=O)[C@H](CO)NC(=O)[C@H](Cc1c[nH]cn1)NC(=O)[C@H](CCCNC(=N)N)NC(=O)[C@H](CC(C)C)NC(=O)[C@H](Cc1ccccc1)NC(=O)[C@H](CC(N)=O)NC(=O)[C@H](C)NC(=O)[C@H](CC(C)C)NC(=O)[C@H](CCCNC(=N)N)NC(=O)[C@H](CCC(N)=O)NC(=O)[C@@H](NC(=O)[C@H](C)NC(=O)[C@@H]1CSSC[C@H](NC(=O)[C@@H](N)CCCCNC(=O)COCCOCCNC(=O)COCCOCCNC(=O)CC[C@H](NC(=O)CCCCCCCCCCCCCCCCCCC(=O)O)C(=O)O)C(=O)N[C@@H](CC(N)=O)C(=O)N[C@@H]([C@@H](C)O)C(=O)N[C@@H](C)C(=O)N[C@@H]([C@@H](C)O)C(=O)N1)[C@@H](C)O)C(=O)N1CCC[C@H]1C(=O)N[C@@H](CO)C(=O)N[C@@H](CO)C(=O)N[C@H](C(=O)N1CCC[C@H]1C(=O)N[C@H](C(=O)NCC(=O)N[C@@H](CO)C(=O)N[C@@H](CC(N)=O)C(=O)N[C@H](C(=O)N[C@@H](Cc1ccc(O)cc1)C(N)=O)[C@@H](C)O)C(C)C)[C@@H](C)O, also called compound 96)
